# Reference: article PMC4868133
# Molecular target: MUC2 VWD3 domain alone, produced as a shorter recombinant protein without the VWD1D2 domains (human)
substance,measurement,value
"MUC2 VWD3 domain alone, produced as a shorter recombinant protein without the VWD1D2 domains (domain or fragment)",stoichiometry N,3
